The substances below were run against tf65_human RELA (UniProt Q04206).

effect of a mutation on the interaction	Substance
decreasing interaction	Bromodomain-containing protein 4 (Homo sapiens) (from UniProt O60885) Y139A;N140A
disrupting interaction	Bromodomain-containing protein 4 (Homo sapiens) (from UniProt O60885) Y139A;N140A;Y432A;N433A
decreasing interaction	Bromodomain-containing protein 4 (Homo sapiens) (from UniProt O60885) Y432A;N433A

From IntAct's records for PubMed 23686307
